The values that follow come from the nanobody polyreactivity screen of Harvey et al. (2022).

The nature of this data set: yeast display, Sf9 membrane polyspecificity reagent, FACS + sequencing; frameworks hold sequencing errors. The gist of the method:
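Nanobodies came from a synthetic yeast display library in Saccharomyces cerevisiae BJ5465, induced with galactose for 36–48 hours and stained for 1 hour at 4 °C with 10% biotinylated, detergent-solubilized Sf9 membrane reagent. Cells were enriched on streptavidin microbeads and then FACS-sorted, with low and high (top ~1%) gates set on anti-HA fluorescence for expression and streptavidin fluorescence for reagent binding. Each polyreactivity label reflects the gate a clone came from. Genes were amplified by colony PCR, sequenced by MiSeq 2 × 250 and filtered by CDR length.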
As to “QVQLVESGGGLVQAGGSLRLSCAASGNNFGNNAMGWYRQAPGKERELVAAISSSGTSTYYADSVKGRFTISRDNAKNTVYLQMNSLKPEDTSVYYCNADPLPYDGYYDYDYWGQGTEVTVSS”, the “polyreactivity (PSR sort gate)” value is listed as “low polyreactivity”. For the sequence “QVQLVESGGGLVQAGGSLRLSCAASGNSFYFYAMGWYRQAPGKERELVAAIDLTDGSTYYADSVKGRFTISRDNAKNTVYLQMNSLKPEDTAVYYCAADWVTFYSYTEYDYWGLGTQVTVSS”, the “polyreactivity (PSR sort gate)” value is on record as “low polyreactivity”.

For the sequence “QVQLVESGGGLVQAGGSLRLSCAASGNSFYSYAMGRYRQAPGKERELVAAITIDGSTTYADSVKGRFTISRDNAKNTVYLQMNSLKPEDTAVSYCNADGFTSDPYDSDDWGQGTLVTVSS”, the “polyreactivity (PSR sort gate)” value is “low polyreactivity”. As for “QVQLVESGGGLVQAGGSLRLSCAASGNTFAYNTMGWYRQAPGKERELVAAIRTRGGSTYYADSVKGRFTISRDNAKNTVYLQMNSLKPEDTAVYYCAADYRYHGYWSYDYWGQGTQVTVSS”, the “polyreactivity (PSR sort gate)” value is “low polyreactivity”.

For the sequence “QVQLVESGGGLVQAGGSLRLSCAASGNTFDGYDMGWYRQAPGKERELVAAITNTGASTYYADSVKGRFTISRDNAKNTVYLQMNSLKPEDTAVYYCNAQDSYPEDRHGMSYWGQGTQVTVSS”, the “polyreactivity (PSR sort gate)” value is on record as “low polyreactivity”.

Turning to “QVQLVESGGGLVQAGGSLRLSCAASGNTFDGYDMGWYRQAPGKERELVAAITNTGASTYYADSVKGRFTISRDNAKNTVYLQMNSLKPEDTAVYYCTAQDSYPEDRHGMSYWGQGTQVTVSS”, the “polyreactivity (PSR sort gate)” value was “low polyreactivity”. For “QVQLVESGGGLVQAGGSLRLSCAASGNTFDRNAMGWYRQAPGKERELVAGISWRGGSTYYADSVKGRFTISRDNAKNTVYLQMNSLKPEDTAVYYCAAQRRYSTITGYGSWGQGTQVTVSS”, the “polyreactivity (PSR sort gate)” value is given as “high polyreactivity”. As for “QVQLVESGGGLVQAGGSLRLSCAASGNTFDYYAMGWYRQAPGKERELVAAITRGGSTNYADSVKGRFTISRDNAKNTVSLQMNSLKPEDTAVYYCAAEQRAPRFADYDYWGQGTQVTVSS”, the “polyreactivity (PSR sort gate)” value is recorded as “low polyreactivity”.

With “QVQLVESGGGLVQAGGSLRLSCAASGNTFFDYDMGWYRQAPGKERELVATITNSGTSTYYTDSVKGRFTISRDNAKNTVYLQMNSLKPEDTAVYYCAADLFYAVLGNEYDYWGQGTQVTVSS”, the “polyreactivity (PSR sort gate)” value is listed as “high polyreactivity”.

“QVQLVESGGGLVQAGGSLRLSCAASGNTFFLYAMGWYRQAPGKERELVAVISASGGSTYFADSVKGRFTISRDNAKNTVYLQMNSVKPEDTAVYYCAKTPRTYYRYRNAFHYYYWGQGTQVTVSS”: the “polyreactivity (PSR sort gate)” value was “high polyreactivity”.

As for “QVQLVESGGGLVQAGGSLRLSCAASGNTFGDNAMGWYRQAPGKERELDAAISTGGNTYYADSVKGRFTISRDNAKNSVYLQMNSLKPEDTAVYYCNAKWIPDTLFGIHETEGDYWGQGTQVTVSS”, the “polyreactivity (PSR sort gate)” value was “low polyreactivity”. Consider “QVQLVESGGGLVQAGGSLRLSCAASGNTFGFYAMGWYRQAPGKERELVAGITSGDSTYYADSVKGRFTISRDNEKNTVYLQMNSLKPVDTAVYYCNADFTDSYWSRYDYWGQGTQVTVSS”, for which the “polyreactivity (PSR sort gate)” value was “low polyreactivity”. For the sequence “QVQLVESGGGLVQAGGSLRLSCAASGNTFGGYAMGWYRQAPGKERELVAAIRYSGTSTYYADSVKGRFTISRDNAKNTVYLQMNSLKPEDTAVYYCAATYTRVPNRFYYWGQGTQVTVSS”, the “polyreactivity (PSR sort gate)” value is reported as “high polyreactivity”. As to “QVQLVESGGGLVQAGGSLRLSCAASGNTFGNYGKGWYRQAPGKEREFVAAITSRGTSTYYADSVKGRFTISRDNAKNTVYLQMNSLKPEDTAVYYCNARPRYKYPRYDYWGQGTQVTVSS”, the “polyreactivity (PSR sort gate)” value is recorded as “high polyreactivity”. For “QVQLVESGGGLVQAGGSLRLSCAASGNTFGRYAMGWYRQAPGKERELVAAITKRGGTTYYADSVKGRFTISRDNAKNTVYLKMNSLKPEDTAVYYCAAKRSVLRTADYDYWGQGTQVTVSS”, the “polyreactivity (PSR sort gate)” value is listed as “high polyreactivity”. Then “QVQLVESGGGLVQAGGSLRLSCAASGNTFGTYVMGWYRPAPGKERELVAAISQSGGSTDYADSVKGRFTISRDNAKYTVYLQMNSLKPEETAVYYCAKVTWGTVWYRSPSEYDYWGQGTQVTVSS”, with “low polyreactivity”. On to “QVQLVESGGGLVQAGGSLRLSCAASGNTFHPYAMGWYRQAPGKVRELVAAITKSGGSTYYADSVKGRFTISRDNAKNTVYLQMNSLKPEDTAVYYCATDGYEYTDYGSSGYDYWGQGTQVTVSS”, for which the “polyreactivity (PSR sort gate)” value was “low polyreactivity”.

With “QVQLVESGGGLVQAGGSLRLSCAASGNTFHSNAMGWYRQAPGKERELVAAITPSDGDTYYADSVKGRFTISRDNAKNTVYLQMNSLKPEDTSVYYCAAEDDPGEYEYWGQGTQVTVSS”, the “polyreactivity (PSR sort gate)” value is “low polyreactivity”. For “QVQLVESGGGLVQAGGSLRLSCAASGNTFKGYAMGWYRQAPGKERELVAAISWSGSSTYYADSVKGRFTISRDNAKNTVYVQMISLKPEDTAVYYCNRKYLGRYASVYGYGYWGQGTQVTVSS”, the “polyreactivity (PSR sort gate)” value is recorded as “high polyreactivity”. In the case of “QVQLVESGGGLVQAGGSLRLSCAASGNTFLRNTMGWYRQAPGKERELVAAISWGGGTTYYADSVKGRFTISRDNAKNTVYLQINSLKPEDSAVYYCNARYYSRRGNSWGQGTQVTVSS”, the “polyreactivity (PSR sort gate)” value is “high polyreactivity”. In the case of “QVQLVESGGGLVQAGGSLRLSCAASGNTFLRYAMGWYRQAPGKERELVAAISTSGDSTYYADSVKGRFTISRDNAKNTVYLQMNSLKPEDTAVYYCAAAWYIHTIAYGCWGQGTQVTVSS”, the “polyreactivity (PSR sort gate)” value was “high polyreactivity”.

With “QVQLVESGGGLVQAGGSLRLSCAASGNTFLYYGMGWYRQAPGKERELVAAITSGGITYYADSVKGRFTISRDNAKNTVYLQMNSLKPEETAVYFCNKDVGFTRPLYYWGQGTQVTVSS”, the “polyreactivity (PSR sort gate)” value is “low polyreactivity”. On to “QVQLVESGGGLVQAGGSLRLSCAASGNTFNRYAMGWYRQAPGKESELVATISYRGGSTSYADSVKGRFTISRDNAKNTVYLQMNSLKPEDTAVYYCATEEGYVLYKYYSWGQGTQVTVSS”, for which the “polyreactivity (PSR sort gate)” value is reported as “low polyreactivity”.

Turning to “QVQLVESGGGLVQAGGSLRLSCAASGNTFNYYTMGWYRQEPGKERELVAAIRSGGRTYYADSVKGRFTISRDNAKNTVYLLMNSLIPEDTAVYDCAAVAVTYRYDYWGQGTQVTVSS”, the “polyreactivity (PSR sort gate)” value is “high polyreactivity”. “QVQLVESGGGLVQAGGSLRLSCAASGNTFPGYAMGWYRQAPGKEREFVATITSNDGTTYYADSVKGRFTISRDNAKNTVYLQLNSLKPEDTAVYYCAKRLSDSWPPNWGYNYWGQGTQVTVSS”: the “polyreactivity (PSR sort gate)” value is “low polyreactivity”.

Consider “QVQLVESGGGLVQAGGSLRLSCAASGNTFPINAMGWYRQAPGKERELVATITRPGGSTYYADSVKARFTISRDNAKNTVYLQMNSLKPEDTAVYYCAAANYTYASRWYDYWGQGTQVTVSS”, for which the “polyreactivity (PSR sort gate)” value is “low polyreactivity”. Take “QVQLVESGGGLVQAGGSLRLSCAASGNTFPIYAMGWSRQAPGKERELVAAIRSSTGSTYYADSVKGRFTISRDYAKNTVYLQMNSLKPEATAVYYCAAAGVTSVVYGTRYYYWGQGTQVTVSS”: the “polyreactivity (PSR sort gate)” value is on record as “high polyreactivity”. Turning to “QVQLVESGGGLVQAGGSLRLSCAASGNTFRSYVMGWYRQAPGKERELVADISSGDGTNYADSVKGRFTISRDNAKNTVYLQMNSLKPEDTAVYYCAAEWSEESDYWGQGTQVTVSS”, the “polyreactivity (PSR sort gate)” value is “low polyreactivity”. In the case of “QVQLVESGGGLVQAGGSLRLSCAASGNTFRWYAMGWYRQAPGKEREFVADITVRGGSTYYADSVKGRFTISRDNAKNTVYLQMNSLKPEDTAVYYCAVDFRRYPGFDYWGQGTQVTVSS”, the “polyreactivity (PSR sort gate)” value is reported as “low polyreactivity”. Then “QVQLVESGGGLVQAGGSLRLSCAASGNTFRWYAMGWYRQAPGKERELVATISRRGGITYYADSVKGRFTISRDNAKNTVYFQMNSLKPEDTAVYYCAAYSGSGLGAYDYWGQGTQVTVSS”, with “high polyreactivity”.
